Measurements reported in article PMC3342256.

Experiments:
[1] = molecular target: Plasmodium falciparum P2 (PfP2), recombinant histidine-tagged full length protein (Plasmodium falciparum) (UniProt O00806); test: multi-angle light scattering; PfP2 250 to 400 µM, freshly prepared sample, HELEOS 8 Wyatt instrument, BSA as standard
[2] = molecular target: Plasmodium falciparum P2 (PfP2), recombinant histidine-tagged full length protein (Plasmodium falciparum) (UniProt O00806); test: dynamic light scattering; PfP2 40 to 180 µM in Tris buffer, pH 7.5, 25°C, freshly prepared samples; size from a calibration of hydrodynamic diameter against molecular weight

Plasmodium falciparum P2 (PfP2), recombinant histidine-tagged full length protein (from UniProt O00806 1-112) (natural protein)
stoichiometry N [1]: 7 to 8
stoichiometry N [2]: 8 to 9
